Source: patent US20200353078A1
Changes are numbered by the printed parent chain.

B1: IL330259 scFv (scFv, part only; not given: linker, domain order and tags, V domains shown, not shown: another chain or arm of the molecule; small tags and cut ends)
VH: EVQLLESGGGLVQPGGSLRLSCAASGFTFSSYAMSWVRQAPGKGLEWVSASTPWQGSTYYADSVKGRFTISRDNSKNTLYLQMNSLRAEDTAVYYCVRVVAGYFDSWGRGTLVTVSS
VL: SYVLTQPPSVSVSPGQTARITCSGDALPKQYAHWYQQKPGQAPALVIYKDTERPSGIPERFSGSSSGTTVTLTISGVQAEDEADYYCQSADSSGASRVFGGGTKVTVL
B2: IL33-02 (ligand)
chain: MHHHHHHHHHHAAGLNDIFEAQKIEWHEAAIEGRSITGISPITEYLASLSTYNDQSITFALEDESYEIYVEDLKKDEKKDKVLLSYYESQHPSNESGDGVDGKMLMVTLSPTKDFWLHANNKEHSVELHKSEKPLPDQAFFVLHNMHSNCVSFECKTDPGVFIGVKDNHLALIKVDSSENLCTENILFKLSET
B3: IL33-05 (ligand)
chain: B2 chain with S131C, C182S
B4: IL33-16 (ligand)
chain: B2 chain with C150S, C155S, C182S
B5: IL33-14 (ligand)
chain: B2 chain with C155S, C182S
B6: IL33-06 (ligand)
chain: B2 chain with C150S
B7: IL33-10 (ligand)
chain: B2 chain with S131C, C150S, C155S
B8: IL33-04 (ligand)
chain: B2 chain with S131C, C155S
B9: IL33-09 (ligand)
chain: B2 chain with S131C, C150S, C182S
B10: IL33-08 (ligand)
chain: B2 chain with C155S
B11: IL33-07 (ligand)
chain: B2 chain with S131C, C155S, C182S
B12: IL33-13 (ligand)
chain: B2 chain with C150S, C182S
B13: IL33-12 (ligand)
chain: B2 chain with C150S, C155S
B14: IL33-15 (ligand)
chain: B2 chain with S131C, C150S, C155S, C182S
B15: IL33-03 (ligand)
chain: B2 chain with S131C, C150S
B16: IL330020 scFv (scFv, part only; not given: linker, domain order and tags, V domains shown, not shown: another chain or arm of the molecule; small tags and cut ends)
VH: QVQLVQSGAEVKKPGASVKVSCKASGYTFTSYGISWVRQAPGQGLEWMGWISDYQGYTKYAEKFQGRVTMTTDTSTNTAYMELRSLRSDDTAVYYCARLYSSGWIRQYHFDYWGRGTLVTVSS
VL: SYELTQPPSVSVSPGQTASITCSGDNLKDKYVSWYQQKPGQAPVLVLYQDRKRPSGIPERFSGSNSGNTATLTISGTQAMDEADYYCQAWDSGTAFGGGTKVTVL

target: Human IL-33 (Axxora/Adipogen AG-40B-0038) (human) (UniProt O95760); experiment: HTRF epitope competition: purified scFv against IL330101 IgG for biotinylated human IL-33

B1 showed an IC50 (read off the curve) of 7 nM.

target: ST2 on human umbilical vein endothelial cells (human) (UniProt Q01638); experiment: cell-based or functional assay
Sequence (Q01638 19-556): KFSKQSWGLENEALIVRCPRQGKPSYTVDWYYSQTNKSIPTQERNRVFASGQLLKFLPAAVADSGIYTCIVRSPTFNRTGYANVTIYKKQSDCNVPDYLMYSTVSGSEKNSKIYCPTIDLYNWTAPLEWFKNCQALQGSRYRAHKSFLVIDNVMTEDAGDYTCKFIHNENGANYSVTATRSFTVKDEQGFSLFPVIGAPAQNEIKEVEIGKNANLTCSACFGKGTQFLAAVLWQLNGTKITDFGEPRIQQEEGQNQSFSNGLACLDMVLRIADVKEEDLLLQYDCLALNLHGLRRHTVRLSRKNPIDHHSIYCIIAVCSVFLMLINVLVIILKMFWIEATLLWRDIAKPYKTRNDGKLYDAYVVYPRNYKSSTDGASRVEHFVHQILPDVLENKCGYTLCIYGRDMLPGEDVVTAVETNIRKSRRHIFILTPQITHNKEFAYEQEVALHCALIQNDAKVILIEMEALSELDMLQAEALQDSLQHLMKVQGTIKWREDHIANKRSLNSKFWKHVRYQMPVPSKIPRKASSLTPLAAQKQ

Compared with B2, B3 is 1.9-fold lower in IC50 (nM) Untreated, HUVEC NFkB translocation assay: 0.19 nM for the first, 0.1 nM for the second.

B4 and B5 are within 1.5-fold of each other in IC50 (nM) Untreated, HUVEC NFkB translocation assay: 0.17 nM for the first, 0.14 nM for the second.

Going from B6 to B7, the IC50 (nM) Untreated, HUVEC NFkB translocation assay rises from 0.28 nM to 0.61 nM (2.2-fold).

B8 and B9 are within 1.5-fold of each other in IC50 (nM) Untreated, HUVEC NFkB translocation assay: 0.17 nM for the first, 0.2 nM for the second.

B10 and B11 are within 1.5-fold of each other in IC50 (nM) Untreated, HUVEC NFkB translocation assay: 0.21 nM for the first, 0.22 nM for the second.

Compared with B12, B13 is 4.9-fold higher in IC50 (nM) Untreated, HUVEC NFkB translocation assay: 0.08 nM for the first, 0.39 nM for the second.

B14 and B15 are within 1.5-fold of each other in IC50 (nM) Untreated, HUVEC NFkB translocation assay: 0.12 nM for the first, 0.16 nM for the second.

target: T1, Human IL-33 Flag®His (human); experiment: HTRF competition: purified scFv titrated against human ST2-Fc for FLAG-His human IL-33
T1 sequence: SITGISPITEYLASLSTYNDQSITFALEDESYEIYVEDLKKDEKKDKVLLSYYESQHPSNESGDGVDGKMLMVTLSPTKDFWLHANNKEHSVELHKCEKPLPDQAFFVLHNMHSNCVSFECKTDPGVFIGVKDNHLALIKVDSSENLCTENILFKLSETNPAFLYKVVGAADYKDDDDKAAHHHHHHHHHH

Work on B16 yielded an IC50 (read off the curve) of 100 nM.
